The target of the assay is T. brucei PNUTS with PTP tag, bloodstream form (T. brucei). Nature of the assay: co-sedimentation; extracts of bloodstream form T. brucei expressing PNUTS-PTP and JBP3-HA or Wdr82-HA on 5-50% sucrose gradients, 38000 rpm 18 hours, fractions analysed by western blot.

Take “T. brucei JBP3 with 3x HA tag, bloodstream form (natural protein)”: the stoichiometry N (as a rule, a count of units in the complex or per binding partner) was 1.

In turn, “T. brucei Wdr82 with 3x HA tag, bloodstream form (natural protein)” returned a stoichiometry N of 1.

Source of the values: paper PMC7055916.
